According to IntAct's records for PubMed 24366543:

B1: Nuclear factor erythroid 2-related factor 2 (Mus musculus), Q60795 (parent)
chain: MMDLELPPPGLQSQQDMDLIDILWRQDIDLGVSREVFDFSQRQKDYELEKQKKLEKERQEQLQKEQEKAFFAQFQLDEETGEFLPIQPAQHIQTDTSGSASYSQVAHIPKQDALYFEDCMQLLAETFPFVDDHESLALDIPSHAESSVFTAPHQAQSLNSSLEAAMTDLSSIEQDMEQVWQELFSIPELQCLNTENKQLADTTAVPSPEATLTEMDSNYHFYSSISSLEKEVGNCGPHFLHGFEDSFSSILSTDDASQLTSLDSNPTLNTDFGDEFYSAFIAEPSDGGSMPSSAAISQSLSELLDGTIEGCDLSLCKAFNPKHAEGTMEFNDSDSGISLNTSPSRASPEHSVESSIYGDPPPGFSDSEMEELDSAPGSVKQNGPKAQPAHSPGDTVQPLSPAQGHSAPMRESQCENTTKKEVPVSPGHQKAPFTKDKHSSRLEAHLTRDELRAKALHIPFPVEKIINLPVDDFNEMMSKEQFNEAQLALIRDIRRRGKNKVAAQNCRKRKLENIVELEQDLGHLKDEREKLLREKGENDRNLHLLKRRLSTLYLEVFSMLRDEDGKPYSPSEYSLQQTRDGNVFLVPKSKKPDTKKN

Variants of: B1
Details: with keap1_mouse Keap1, Q9Z2X8
keap1_mouse Keap1, Q9Z2X8, sequence (Q9Z2X8 whole entry): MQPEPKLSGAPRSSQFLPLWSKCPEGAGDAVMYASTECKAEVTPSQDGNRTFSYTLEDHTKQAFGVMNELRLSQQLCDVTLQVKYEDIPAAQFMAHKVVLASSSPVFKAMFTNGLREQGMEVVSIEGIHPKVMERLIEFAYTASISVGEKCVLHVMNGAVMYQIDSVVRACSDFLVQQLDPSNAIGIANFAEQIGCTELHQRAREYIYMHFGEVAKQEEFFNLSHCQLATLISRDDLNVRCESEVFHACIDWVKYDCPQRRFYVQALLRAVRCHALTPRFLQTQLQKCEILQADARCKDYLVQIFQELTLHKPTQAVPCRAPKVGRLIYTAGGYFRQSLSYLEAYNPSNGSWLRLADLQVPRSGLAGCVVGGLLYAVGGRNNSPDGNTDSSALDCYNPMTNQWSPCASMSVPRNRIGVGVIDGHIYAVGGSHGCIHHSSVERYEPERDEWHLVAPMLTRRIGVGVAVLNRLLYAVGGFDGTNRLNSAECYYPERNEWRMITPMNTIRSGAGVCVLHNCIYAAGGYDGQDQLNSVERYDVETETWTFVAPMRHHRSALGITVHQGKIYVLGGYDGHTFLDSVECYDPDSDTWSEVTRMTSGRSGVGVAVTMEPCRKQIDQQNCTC

| Variant | effect of a mutation on the interaction |
| --- | --- |
| V32G | disrupting interaction |

Variants of: B1
Details: with keap1_mouse Keap1, Q9Z2X8
Remark: another data set of the same source

| Variant | effect of a mutation on the interaction |
| --- | --- |
| I28T | disrupting interaction |

Variants of: B1
Details: with keap1_mouse Keap1, Q9Z2X8
Remark: another data set of the same source

| Variant | effect of a mutation on the interaction |
| --- | --- |
| D27Y | disrupting interaction |

Variants of: B1
Details: with keap1_mouse Keap1, Q9Z2X8
Remark: another data set of the same source

| Variant | effect of a mutation on the interaction |
| --- | --- |
| Q26E | disrupting interaction |

Variants of: B1
Details: with keap1_mouse Keap1, Q9Z2X8
Remark: another data set of the same source

| Variant | effect of a mutation on the interaction |
| --- | --- |
| S33R | increasing interaction |

Variants of: B1
Details: with keap1_mouse Keap1, Q9Z2X8
Remark: another data set of the same source

| Variant | effect of a mutation on the interaction |
| --- | --- |
| L23R | disrupting interaction |

Variants of: B1
Details: with keap1_mouse Keap1, Q9Z2X8
Remark: another data set of the same source

| Variant | effect of a mutation on the interaction |
| --- | --- |
| R34Q | disrupting interaction |

Variants of: B1
Details: with keap1_mouse Keap1, Q9Z2X8
Remark: another data set of the same source

| Variant | effect of a mutation on the interaction |
| --- | --- |
| G31A | disrupting interaction |

Variants of: B1
Details: with keap1_mouse Keap1, Q9Z2X8
Remark: another data set of the same source

| Variant | effect of a mutation on the interaction |
| --- | --- |
| W24R | disrupting interaction |

Variants of: B1
Details: with keap1_mouse Keap1, Q9Z2X8
Remark: another data set of the same source

| Variant | effect of a mutation on the interaction |
| --- | --- |
| W24C | disrupting interaction |

Variants of: B1
Details: with keap1_mouse Keap1, Q9Z2X8
Remark: another data set of the same source

| Variant | effect of a mutation on the interaction |
| --- | --- |
| D29G | disrupting interaction |

Variants of: B1
Details: with keap1_mouse Keap1, Q9Z2X8
Remark: another data set of the same source

| Variant | effect of a mutation on the interaction |
| --- | --- |
| D29H | disrupting interaction |

Variants of: B1
Details: with keap1_mouse Keap1, Q9Z2X8
Remark: another data set of the same source

| Variant | effect of a mutation on the interaction |
| --- | --- |
| L30F | disrupting interaction |

Variants of: B1
Details: with keap1_mouse Keap1, Q9Z2X8
Remark: another data set of the same source

| Variant | effect of a mutation on the interaction |
| --- | --- |
| Q43R | increasing interaction |
